Numbering of substitutions follows the chain as printed.

Data on five molecules can be found in patent USRE47123 (Sanofi, dated 2018).

Test [1] has as its target T1, human EphA2 receptor (human, UniProt P29317 24-976).
T1 construct: whole, on cells; also called hu-EphA2
The experiment in a line: FACS titration on HUVEC cells, non-linear regression for one-site binding (apparent KD).

In test [2] the target is T2, monkey EphA2 on VERO cells (monkey (Cercopithecus aethiops)).
T2 construct: whole, on cells
The experiment in a line: FACS titration on monkey VERO cells, non-linear regression for one-site binding (apparent KD).

Another test deals with T3, murine EphA2 receptor (murine, UniProt Q03145 26-977).
T3 construct: whole, on cells; also called mu-EphA2
T3 sequence (Q03145 26-977): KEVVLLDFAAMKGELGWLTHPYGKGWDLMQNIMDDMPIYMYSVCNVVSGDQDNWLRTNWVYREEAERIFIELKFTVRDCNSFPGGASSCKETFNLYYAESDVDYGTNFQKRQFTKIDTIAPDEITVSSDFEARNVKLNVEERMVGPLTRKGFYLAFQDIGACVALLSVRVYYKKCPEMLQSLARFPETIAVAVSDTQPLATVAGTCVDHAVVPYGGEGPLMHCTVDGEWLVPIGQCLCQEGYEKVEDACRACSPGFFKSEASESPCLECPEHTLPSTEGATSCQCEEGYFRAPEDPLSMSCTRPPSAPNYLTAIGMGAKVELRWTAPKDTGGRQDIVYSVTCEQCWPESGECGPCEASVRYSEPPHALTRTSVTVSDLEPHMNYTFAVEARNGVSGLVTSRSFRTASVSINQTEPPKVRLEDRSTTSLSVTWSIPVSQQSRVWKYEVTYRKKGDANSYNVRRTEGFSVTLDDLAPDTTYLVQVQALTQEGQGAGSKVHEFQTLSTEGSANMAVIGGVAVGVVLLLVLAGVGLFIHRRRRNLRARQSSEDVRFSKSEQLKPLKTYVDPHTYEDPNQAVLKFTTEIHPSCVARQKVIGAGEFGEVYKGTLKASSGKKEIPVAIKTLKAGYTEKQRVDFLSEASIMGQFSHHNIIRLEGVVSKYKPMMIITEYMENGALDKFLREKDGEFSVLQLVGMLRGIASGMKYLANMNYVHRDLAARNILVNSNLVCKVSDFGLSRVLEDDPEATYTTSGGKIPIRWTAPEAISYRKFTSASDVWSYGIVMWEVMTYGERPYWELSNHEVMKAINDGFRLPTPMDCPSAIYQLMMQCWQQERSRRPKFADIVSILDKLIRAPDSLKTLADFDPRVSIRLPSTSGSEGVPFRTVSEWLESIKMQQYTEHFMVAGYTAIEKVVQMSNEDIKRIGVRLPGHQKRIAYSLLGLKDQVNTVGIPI
The experiment in a line: FACS, cells over-expressing murine EphA2. Background: In flow cytometry, cells or beads pass a laser one at a time.

Test [3] has as its target T1, human EphA2 receptor. Kind of test: FACS titration on HUVEC cells (apparent KD).
Test [4] has as its target T1, human EphA2 receptor. Kind of test: FACS titration on cells with human EphA2, non-linear regression for one-site binding (apparent KD).
In test [5] the target is T1, human EphA2 receptor. Kind of test: FACS titration on cells with human EphA2, same protocol (apparent KD).

T1 sequence (P29317 24-976): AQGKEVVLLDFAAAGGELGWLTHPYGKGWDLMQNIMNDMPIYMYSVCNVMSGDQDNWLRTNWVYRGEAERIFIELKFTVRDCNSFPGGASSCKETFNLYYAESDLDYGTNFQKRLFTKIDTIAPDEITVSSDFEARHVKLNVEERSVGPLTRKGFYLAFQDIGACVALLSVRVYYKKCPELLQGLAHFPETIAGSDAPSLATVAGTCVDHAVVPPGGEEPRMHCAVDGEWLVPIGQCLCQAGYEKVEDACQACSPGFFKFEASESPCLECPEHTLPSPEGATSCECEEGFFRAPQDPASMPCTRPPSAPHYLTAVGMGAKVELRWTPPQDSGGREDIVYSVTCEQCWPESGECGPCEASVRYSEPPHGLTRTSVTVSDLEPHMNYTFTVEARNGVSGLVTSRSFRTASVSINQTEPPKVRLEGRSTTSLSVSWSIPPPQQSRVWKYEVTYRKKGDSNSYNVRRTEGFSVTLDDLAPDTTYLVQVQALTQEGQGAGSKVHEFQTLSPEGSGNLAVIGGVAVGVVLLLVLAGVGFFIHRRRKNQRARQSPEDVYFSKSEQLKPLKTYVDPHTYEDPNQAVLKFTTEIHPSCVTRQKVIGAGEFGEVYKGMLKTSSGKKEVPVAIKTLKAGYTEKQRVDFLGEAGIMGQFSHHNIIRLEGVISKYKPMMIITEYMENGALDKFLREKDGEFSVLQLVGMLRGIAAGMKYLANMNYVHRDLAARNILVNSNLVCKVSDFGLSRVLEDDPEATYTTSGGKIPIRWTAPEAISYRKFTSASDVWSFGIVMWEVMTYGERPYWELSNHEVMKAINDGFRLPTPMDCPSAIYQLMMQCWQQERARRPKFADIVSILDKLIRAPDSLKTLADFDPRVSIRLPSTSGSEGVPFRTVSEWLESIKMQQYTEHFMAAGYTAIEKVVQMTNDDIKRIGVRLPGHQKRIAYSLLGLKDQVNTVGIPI

B1: murine anti-EphA2 monoclonal antibody 37.3D7 (antibody, V domains shown)
VH: QVQLQQPGSELVRPGASVQLSCKASGYSFTSYWMHWVRQRPGQGLQWIGNIYPGTGNTNYDEKFMNKATLTVDTYSSTTYMQLSSLTSEDSAVYYCARWGLVRYFFAMDYWGQGTSVTVSS
VL: QIVLTQSPAIMSASLGERVTMTCTVSSSVNSSYLHWYQQKPGSSPKLWIYSTSNLPSGVPARFSGSGSGTSYSLTISTIESEDAATYYCHQYHRSPQFTFGSGTKLEIKR
notes: Purified murine monoclonal antibody from hybridoma PTA-7660; also called mu37.3D7; 37.3D7 antibody
Regarding B1, the Kd with human EphA2 receptor [1] came out at 0.3 nM; in test [2], 0.15 nM. The binding result with murine EphA2 receptor is listed as “binds”.

B2: murine anti-EphA2 monoclonal antibody 53.2H11 (antibody, V domains shown)
VH: EVQLQQSGPELVKPGASVKISCKASGYSFTAYYMHWVKQSHVKSLEWIGLVNPYNGFSSYNQNFEDKASLTVDKFSSTAYMELHSLTSEDSAVYYCAREFYGYRYFDVWGAGTAVTVSS
VL: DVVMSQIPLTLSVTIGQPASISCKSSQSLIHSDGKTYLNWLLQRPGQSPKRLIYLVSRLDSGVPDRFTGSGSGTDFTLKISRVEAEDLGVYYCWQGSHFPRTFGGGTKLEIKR
notes: Purified murine monoclonal antibody from hybridoma PTA-7662; also called 53.2H11 antibody
Turning to B2, the figures for the Kd (in the test with human EphA2 receptor [3]; in test [2]; with human EphA2 receptor [4]) were 0.06 nM, 0.07 nM and 0.14 nM, respectively. Also, the binding result in the test with murine EphA2 receptor is on record as “binds”.

B3: murine anti-EphA2 monoclonal antibody EphA2-N2 (antibody, V domains shown)
VH: EVQLQQSGPELVKPGASVKISCKASGYTFTDYNMHWVKQSHGKSLEWIGFIYPYNGGTGYNQRFKNKATLTVDTSSSTAYMEVRSLTSEDSAVYFCARGYYYGRHFDYWGQGTTLTVSS
VL: QIVLTQSPALMSASPGEKVTMTCSASSSVSYMYWYQQKPRSSPKPWIYITSNLASGVPARFSGSGSGTSYSLTISSMEAEDAATYYCQQWSSNPPTFGGGTKLEIKR
notes: Murine monoclonal antibody from hybridoma PTA-8408
As for B3, the Kd with human EphA2 receptor [5] was 0.05 nM.

B4: murine anti-EphA2 monoclonal antibody EphA2-N1 (antibody, V domains shown)
VH: EVQLQQSGPDLVKPGASVKISCKASGYRFTEYNMHWMKQSHGESLEWIGYIYPYNGDTGYRQKFKNMATLTADISSNTAYMELRSLTSDDSAVYFCARWGYGSGGGFTYWGQGTLVTVSA
VL: DIVLTQSPGSLAVSLGQRATISCRASESVDTYGNSFMHWYQQKAGQPPRLLIYRASNLESGIPARFSGSGSRTDFTLTINPVEADDVATYYCQQSNEDPLTFGAGTKLELKR
notes: Murine monoclonal antibody from hybridoma PTA-8407
B4: in the test with human EphA2 receptor [5], the Kd was determined as 0.18 nM.

B5: murine anti-EphA2 monoclonal antibody 37.1F5 (antibody, V domains shown)
VH: EVQLQQSGPELVKPGASMKISCRASGYSFTGYTMNWVRQSHGKNLEWIGLINPHNGGSSYNLKFKGKATLTVDKSSSTAYMELLSLTSEDSAVYYCVRWGDYGSFAYWGQGTLVTVSA
VL: B4 VL with G9A, Y32F, N34Y, M37I, H38Y, A44P, L100P, A104G, L110I
notes: Purified murine monoclonal antibody from hybridoma PTA-7661; also called mu37.1F5; 37.1F5 antibody
For B5, the results for the Kd (in the test with human EphA2 receptor [3]; in test [2]; with human EphA2 receptor [4]) were 0.01 nM, 0.05 nM and 0.07 nM, respectively.
